From the supplement of paper PMC10065799, “High-throughput profiling of sequence recognition by tyrosine kinases and SH2 domains using bacterial peptide display” (eLife, 2023)
Blank lines part the entries; values can stand above or below the sequence they belong to.

Experiments:
c-Src SH2 = test: SH2 binding enrichment of the phosphorylated peptide, bacterial display (enrichment ratio); higher = better substrate or ligand; peptides without Tyr show the background
SHP2-C SH2 = test: as above
Grb2 SH2 = Grb2 SH2 (UniProt P62993); test: as above
EPHB1 = EPHB1 (UniProt P54762); test: phosphorylation enrichment, bacterial display (enrichment ratio); higher = better substrate or ligand; peptides without Tyr show the background
EPHB1, sequence (P54762 whole entry, looked up): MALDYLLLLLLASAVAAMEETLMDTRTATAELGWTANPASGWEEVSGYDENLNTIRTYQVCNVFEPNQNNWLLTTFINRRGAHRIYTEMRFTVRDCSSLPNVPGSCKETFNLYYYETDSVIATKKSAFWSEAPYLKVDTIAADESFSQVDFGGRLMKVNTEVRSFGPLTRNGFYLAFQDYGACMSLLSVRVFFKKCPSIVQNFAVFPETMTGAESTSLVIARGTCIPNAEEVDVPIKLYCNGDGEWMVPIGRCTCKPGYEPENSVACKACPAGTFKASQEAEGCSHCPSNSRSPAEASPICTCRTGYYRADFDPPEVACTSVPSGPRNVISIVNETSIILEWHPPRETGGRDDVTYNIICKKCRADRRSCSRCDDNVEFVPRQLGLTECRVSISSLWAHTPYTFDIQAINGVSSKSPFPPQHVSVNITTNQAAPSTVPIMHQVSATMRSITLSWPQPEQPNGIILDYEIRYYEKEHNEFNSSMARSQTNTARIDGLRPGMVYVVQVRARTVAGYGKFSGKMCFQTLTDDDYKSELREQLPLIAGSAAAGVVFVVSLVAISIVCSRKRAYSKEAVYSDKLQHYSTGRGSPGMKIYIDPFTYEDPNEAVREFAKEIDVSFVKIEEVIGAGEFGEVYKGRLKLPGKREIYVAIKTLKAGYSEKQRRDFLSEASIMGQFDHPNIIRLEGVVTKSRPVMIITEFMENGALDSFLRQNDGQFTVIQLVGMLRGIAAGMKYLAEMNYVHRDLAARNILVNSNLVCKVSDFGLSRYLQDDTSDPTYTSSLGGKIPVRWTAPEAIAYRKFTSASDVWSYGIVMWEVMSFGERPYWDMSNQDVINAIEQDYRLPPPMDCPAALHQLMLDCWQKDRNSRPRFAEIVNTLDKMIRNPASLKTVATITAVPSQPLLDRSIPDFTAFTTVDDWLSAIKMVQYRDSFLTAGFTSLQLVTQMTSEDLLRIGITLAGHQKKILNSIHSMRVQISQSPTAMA

Fer (mouse) = test: as above
Jak2 = Jak2 (UniProt O60674); test: as above
AncSZ = test: as above
Fyn = Fyn (UniProt P06241); test: as above
Fyn, sequence (P06241 whole entry, looked up): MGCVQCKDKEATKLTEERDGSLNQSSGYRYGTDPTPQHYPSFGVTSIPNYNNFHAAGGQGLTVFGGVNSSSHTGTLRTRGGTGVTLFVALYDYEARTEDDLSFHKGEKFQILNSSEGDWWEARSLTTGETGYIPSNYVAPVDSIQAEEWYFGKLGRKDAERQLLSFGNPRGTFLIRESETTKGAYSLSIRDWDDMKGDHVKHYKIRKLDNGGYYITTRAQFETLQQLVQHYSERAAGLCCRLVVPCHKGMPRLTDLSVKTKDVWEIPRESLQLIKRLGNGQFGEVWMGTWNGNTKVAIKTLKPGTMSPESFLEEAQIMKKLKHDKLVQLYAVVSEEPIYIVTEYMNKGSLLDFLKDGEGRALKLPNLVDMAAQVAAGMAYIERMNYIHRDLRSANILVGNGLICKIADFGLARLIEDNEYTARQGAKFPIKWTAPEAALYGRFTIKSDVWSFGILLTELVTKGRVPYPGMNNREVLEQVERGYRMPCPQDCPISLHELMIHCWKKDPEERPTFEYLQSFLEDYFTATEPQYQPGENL

EPHB2 = EPHB2 (UniProt P29323); test: as above
MERTK = MERTK (UniProt Q12866); test: as above
MERTK, sequence (Q12866 whole entry, looked up): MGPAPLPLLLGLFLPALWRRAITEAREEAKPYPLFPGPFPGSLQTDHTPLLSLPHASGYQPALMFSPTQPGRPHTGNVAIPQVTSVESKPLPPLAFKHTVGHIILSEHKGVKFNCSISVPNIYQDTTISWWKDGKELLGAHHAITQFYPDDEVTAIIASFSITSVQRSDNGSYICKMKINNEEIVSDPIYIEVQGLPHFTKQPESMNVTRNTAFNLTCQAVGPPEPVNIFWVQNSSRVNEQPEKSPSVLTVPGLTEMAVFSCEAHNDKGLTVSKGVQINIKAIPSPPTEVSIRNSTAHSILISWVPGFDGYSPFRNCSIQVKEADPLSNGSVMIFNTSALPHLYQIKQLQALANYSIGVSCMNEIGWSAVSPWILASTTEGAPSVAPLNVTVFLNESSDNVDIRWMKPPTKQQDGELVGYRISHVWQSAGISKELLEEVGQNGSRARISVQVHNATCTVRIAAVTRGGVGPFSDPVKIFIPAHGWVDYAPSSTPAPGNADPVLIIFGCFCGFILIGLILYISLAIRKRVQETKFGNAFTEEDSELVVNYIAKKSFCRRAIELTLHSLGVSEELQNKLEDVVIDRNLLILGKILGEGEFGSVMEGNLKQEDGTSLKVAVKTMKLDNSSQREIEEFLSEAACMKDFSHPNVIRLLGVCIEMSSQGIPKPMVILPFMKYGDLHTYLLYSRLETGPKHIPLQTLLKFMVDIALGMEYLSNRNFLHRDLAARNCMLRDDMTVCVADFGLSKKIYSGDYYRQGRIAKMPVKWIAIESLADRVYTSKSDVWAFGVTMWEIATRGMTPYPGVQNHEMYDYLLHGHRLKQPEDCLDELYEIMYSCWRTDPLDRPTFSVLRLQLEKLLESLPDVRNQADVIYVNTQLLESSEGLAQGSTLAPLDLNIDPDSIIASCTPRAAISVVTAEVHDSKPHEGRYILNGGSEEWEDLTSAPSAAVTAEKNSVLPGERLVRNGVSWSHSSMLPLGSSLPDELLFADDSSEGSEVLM

Hck = Hck (UniProt P08631); test: as above
Hck, sequence (P08631 whole entry, looked up): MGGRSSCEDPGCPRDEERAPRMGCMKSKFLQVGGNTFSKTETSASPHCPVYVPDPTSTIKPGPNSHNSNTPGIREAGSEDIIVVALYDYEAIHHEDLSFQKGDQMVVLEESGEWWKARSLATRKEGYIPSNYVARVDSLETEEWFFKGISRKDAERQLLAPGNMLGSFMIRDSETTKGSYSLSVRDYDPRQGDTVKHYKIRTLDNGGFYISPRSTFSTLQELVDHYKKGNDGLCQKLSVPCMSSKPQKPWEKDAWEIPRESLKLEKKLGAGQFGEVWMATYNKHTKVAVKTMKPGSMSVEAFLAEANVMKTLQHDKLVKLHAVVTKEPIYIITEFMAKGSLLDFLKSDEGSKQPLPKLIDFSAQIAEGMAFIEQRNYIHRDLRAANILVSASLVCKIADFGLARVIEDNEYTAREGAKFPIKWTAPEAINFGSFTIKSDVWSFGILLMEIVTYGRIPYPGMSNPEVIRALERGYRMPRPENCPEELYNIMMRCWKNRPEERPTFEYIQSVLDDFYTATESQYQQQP

c-Src = test: as above
FGFR1 = FGFR1 (UniProt P11362); test: as above
FGFR1, sequence (P11362 whole entry, looked up): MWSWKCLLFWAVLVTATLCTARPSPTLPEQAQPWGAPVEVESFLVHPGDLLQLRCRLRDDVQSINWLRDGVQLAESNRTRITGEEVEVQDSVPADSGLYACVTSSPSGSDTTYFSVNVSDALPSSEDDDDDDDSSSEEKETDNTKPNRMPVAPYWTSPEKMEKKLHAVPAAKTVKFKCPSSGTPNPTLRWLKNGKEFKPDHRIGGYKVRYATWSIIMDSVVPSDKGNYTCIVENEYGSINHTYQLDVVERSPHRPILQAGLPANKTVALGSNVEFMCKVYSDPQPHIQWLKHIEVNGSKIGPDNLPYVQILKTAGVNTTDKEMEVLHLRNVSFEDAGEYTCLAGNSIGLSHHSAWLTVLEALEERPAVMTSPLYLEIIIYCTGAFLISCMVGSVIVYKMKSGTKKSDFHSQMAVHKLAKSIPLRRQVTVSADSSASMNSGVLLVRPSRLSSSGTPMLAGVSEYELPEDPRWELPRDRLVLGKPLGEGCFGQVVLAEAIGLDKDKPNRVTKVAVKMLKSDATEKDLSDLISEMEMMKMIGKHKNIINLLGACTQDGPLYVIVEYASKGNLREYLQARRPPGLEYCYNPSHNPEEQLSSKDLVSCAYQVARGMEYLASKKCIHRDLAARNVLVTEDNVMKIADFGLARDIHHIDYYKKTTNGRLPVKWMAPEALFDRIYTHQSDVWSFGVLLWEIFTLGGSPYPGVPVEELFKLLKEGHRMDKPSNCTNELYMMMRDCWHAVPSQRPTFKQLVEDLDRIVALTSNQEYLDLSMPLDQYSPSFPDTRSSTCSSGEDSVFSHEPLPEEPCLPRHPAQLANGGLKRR

c-Abl (mouse) = test: as above
Fes = Fes (UniProt P07332); test: as above
FGFR3 = FGFR3 (UniProt P22607); test: as above
FGFR3, sequence (P22607 whole entry, looked up, the tested form may be a part): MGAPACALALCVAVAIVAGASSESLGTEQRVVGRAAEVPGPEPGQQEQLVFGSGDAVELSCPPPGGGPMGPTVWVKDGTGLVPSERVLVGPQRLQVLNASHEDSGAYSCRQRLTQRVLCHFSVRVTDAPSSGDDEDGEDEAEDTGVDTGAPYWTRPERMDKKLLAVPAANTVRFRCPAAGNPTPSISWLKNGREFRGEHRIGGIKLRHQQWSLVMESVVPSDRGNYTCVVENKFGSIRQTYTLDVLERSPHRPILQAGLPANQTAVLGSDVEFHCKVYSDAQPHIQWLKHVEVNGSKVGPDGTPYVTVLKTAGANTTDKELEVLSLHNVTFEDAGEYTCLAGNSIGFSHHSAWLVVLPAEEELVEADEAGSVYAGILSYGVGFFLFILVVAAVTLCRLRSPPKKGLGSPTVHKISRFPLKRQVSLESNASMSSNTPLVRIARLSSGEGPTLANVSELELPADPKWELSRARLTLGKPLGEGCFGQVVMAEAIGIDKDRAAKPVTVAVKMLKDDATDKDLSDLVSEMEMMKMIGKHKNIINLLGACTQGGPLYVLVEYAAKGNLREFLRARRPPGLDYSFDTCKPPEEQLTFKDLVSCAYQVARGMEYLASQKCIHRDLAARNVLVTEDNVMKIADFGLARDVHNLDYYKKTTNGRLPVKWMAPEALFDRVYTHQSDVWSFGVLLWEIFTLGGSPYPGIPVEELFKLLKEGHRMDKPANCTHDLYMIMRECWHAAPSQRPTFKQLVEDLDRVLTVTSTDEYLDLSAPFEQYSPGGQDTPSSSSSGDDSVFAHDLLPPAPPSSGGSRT
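For SH2 binding enrichment of the phosphorylated peptide, bacterial display in this document: peptide library displayed on the E. coli surface as eCPX fusions, selected cells deep-sequenced, score is each peptide's frequency after selection divided by its frequency in the input.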
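For phosphorylation enrichment, bacterial display in this document: 11-residue human phosphosite peptides and single-mutation variants displayed on the E. coli surface, counted by deep sequencing, each peptide's frequency after selection divided by its frequency in the unselected input library; frequency after pTyr selection over input frequency; kinase dosed for 20-30% of maximal phosphorylation in three min.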

Sequence: EPFEVYRIVPE [IRF8_Y110_K108E_YF]
SH2 binding enrichment (c-Src SH2): 0.521
SH2 binding enrichment (SHP2-C SH2): 0.535
SH2 binding enrichment (Grb2 SH2): 0.916
phosphorylation enrichment (EPHB1): 0.662
phosphorylation enrichment (Fer (mouse)): 0.411
phosphorylation enrichment (Jak2): 0.882
phosphorylation enrichment (AncSZ): 1.05
phosphorylation enrichment (Fyn): 3.41
phosphorylation enrichment (EPHB2): 0.72
phosphorylation enrichment (MERTK): 0.62
phosphorylation enrichment (Hck): 2.37
phosphorylation enrichment (c-Src): 3.68
phosphorylation enrichment (FGFR1): 1.25
phosphorylation enrichment (c-Abl (mouse)): 0.798
phosphorylation enrichment (Fes): 1.03
phosphorylation enrichment (FGFR3): 1.03

Sequence: ALAHKYPGGGG [HBB_Y146_H147P]
SH2 binding enrichment (c-Src SH2): 0.384
SH2 binding enrichment (SHP2-C SH2): 0.581
SH2 binding enrichment (Grb2 SH2): 0.516
phosphorylation enrichment (EPHB1): 0.894
phosphorylation enrichment (Fer (mouse)): 0.432
phosphorylation enrichment (Jak2): 0.262
phosphorylation enrichment (AncSZ): 0.214
phosphorylation enrichment (Fyn): 0.559
phosphorylation enrichment (EPHB2): 0.84
phosphorylation enrichment (MERTK): 0.334
phosphorylation enrichment (Hck): 0.273
phosphorylation enrichment (c-Src): 0.281
phosphorylation enrichment (FGFR1): 0.853
phosphorylation enrichment (c-Abl (mouse)): 0.436
phosphorylation enrichment (Fes): 0.632
phosphorylation enrichment (FGFR3): 0.662

Sequence: TLNHQYDFTFD [CSNK1A1_Y292_YF]
SH2 binding enrichment (c-Src SH2): 8.5
SH2 binding enrichment (SHP2-C SH2): 0.701
SH2 binding enrichment (Grb2 SH2): 0.844
phosphorylation enrichment (EPHB1): 0.553
phosphorylation enrichment (Fer (mouse)): 0.543
phosphorylation enrichment (Jak2): 0.989
phosphorylation enrichment (AncSZ): 1.22
phosphorylation enrichment (Fyn): 0.507
phosphorylation enrichment (EPHB2): 0.543
phosphorylation enrichment (MERTK): 0.6
phosphorylation enrichment (Hck): 0.495
phosphorylation enrichment (c-Src): 0.485
phosphorylation enrichment (FGFR1): 0.57
phosphorylation enrichment (c-Abl (mouse)): 0.705
phosphorylation enrichment (Fes): 1.07
phosphorylation enrichment (FGFR3): 0.653

Sequence: RLPSGYGLAFR [DLK1_Y262_YF]
SH2 binding enrichment (c-Src SH2): 0.521
SH2 binding enrichment (SHP2-C SH2): 0.852
SH2 binding enrichment (Grb2 SH2): 0.823
phosphorylation enrichment (EPHB1): 0.416
phosphorylation enrichment (Fer (mouse)): 0.49
phosphorylation enrichment (Jak2): 0.837
phosphorylation enrichment (AncSZ): 0.734
phosphorylation enrichment (Fyn): 0.549
phosphorylation enrichment (EPHB2): 0.526
phosphorylation enrichment (MERTK): 0.396
phosphorylation enrichment (Hck): 0.509
phosphorylation enrichment (c-Src): 0.478
phosphorylation enrichment (FGFR1): 0.422
phosphorylation enrichment (c-Abl (mouse)): 0.889
phosphorylation enrichment (Fes): 0.885
phosphorylation enrichment (FGFR3): 0.595

Sequence: WRVISYHVVVW [ATP13A2_Y50_G49S]
SH2 binding enrichment (c-Src SH2): 0.619
SH2 binding enrichment (SHP2-C SH2): 0.994
SH2 binding enrichment (Grb2 SH2): 1.08
phosphorylation enrichment (EPHB1): 0.582
phosphorylation enrichment (Fer (mouse)): 0.547
phosphorylation enrichment (Jak2): 1.26
phosphorylation enrichment (AncSZ): 1.2
phosphorylation enrichment (Fyn): 0.453
phosphorylation enrichment (EPHB2): 0.61
phosphorylation enrichment (MERTK): 0.434
phosphorylation enrichment (Hck): 0.544
phosphorylation enrichment (c-Src): 0.63
phosphorylation enrichment (FGFR1): 0.554
phosphorylation enrichment (c-Abl (mouse)): 1.03
phosphorylation enrichment (Fes): 1.47
phosphorylation enrichment (FGFR3): 0.826

Sequence: TQTPPYVKKHR [LARP1B_Y457_P462R]
SH2 binding enrichment (c-Src SH2): 0.954
SH2 binding enrichment (SHP2-C SH2): 0.956
SH2 binding enrichment (Grb2 SH2): 1.18
phosphorylation enrichment (EPHB1): 0.575
phosphorylation enrichment (Fer (mouse)): 0.684
phosphorylation enrichment (Jak2): 1.04
phosphorylation enrichment (AncSZ): 0.774
phosphorylation enrichment (Fyn): 0.531
phosphorylation enrichment (EPHB2): 0.545
phosphorylation enrichment (MERTK): 0.541
phosphorylation enrichment (Hck): 0.649
phosphorylation enrichment (c-Src): 0.624
phosphorylation enrichment (FGFR1): 0.683
phosphorylation enrichment (c-Abl (mouse)): 1.18
phosphorylation enrichment (Fes): 1.23
phosphorylation enrichment (FGFR3): 1.22

Sequence: GDEEDYFEIPG [EGFR_opt_F_2015]
SH2 binding enrichment (c-Src SH2): 0.706
SH2 binding enrichment (SHP2-C SH2): 0.632
SH2 binding enrichment (Grb2 SH2): 0.875
phosphorylation enrichment (EPHB1): 0.571
phosphorylation enrichment (Fer (mouse)): 0.5
phosphorylation enrichment (Jak2): 1.21
phosphorylation enrichment (AncSZ): 2.75
phosphorylation enrichment (Fyn): 0.504
phosphorylation enrichment (EPHB2): 0.723
phosphorylation enrichment (MERTK): 0.532
phosphorylation enrichment (Hck): 0.532
phosphorylation enrichment (c-Src): 0.628
phosphorylation enrichment (FGFR1): 4.57
phosphorylation enrichment (c-Abl (mouse)): 0.78
phosphorylation enrichment (Fes): 1.22
phosphorylation enrichment (FGFR3): 5.08

More lines, main results first:

SH2 binding enrichment (c-Src SH2): 1.03
SH2 binding enrichment (SHP2-C SH2): 6.21
SH2 binding enrichment (Grb2 SH2): 1.39
Sequence: NFDRIYIYHLR [MYOF_Y1137_V1136I]
phosphorylation enrichment (EPHB1): 0.701
phosphorylation enrichment (Fer (mouse)): 0.611
phosphorylation enrichment (Jak2): 1.1
phosphorylation enrichment (AncSZ): 1.17
phosphorylation enrichment (Fyn): 0.732
phosphorylation enrichment (EPHB2): 0.648
phosphorylation enrichment (MERTK): 0.63
phosphorylation enrichment (Hck): 0.742
phosphorylation enrichment (c-Src): 0.923
phosphorylation enrichment (FGFR1): 0.548
phosphorylation enrichment (c-Abl (mouse)): 0.734
phosphorylation enrichment (Fes): 1.2
phosphorylation enrichment (FGFR3): 0.787

SH2 binding enrichment (c-Src SH2): 4
SH2 binding enrichment (SHP2-C SH2): 2.63
SH2 binding enrichment (Grb2 SH2): 20.1
Sequence: HLGNQYVNVMN [SLC3A1_Y461_R456H]
phosphorylation enrichment (EPHB1): 0.565
phosphorylation enrichment (Fer (mouse)): 0.603
phosphorylation enrichment (Jak2): 0.618
phosphorylation enrichment (AncSZ): 0.905
phosphorylation enrichment (Fyn): 0.483
phosphorylation enrichment (EPHB2): 0.477
phosphorylation enrichment (MERTK): 0.29
phosphorylation enrichment (Hck): 0.85
phosphorylation enrichment (c-Src): 0.471
phosphorylation enrichment (FGFR1): 0.735
phosphorylation enrichment (c-Abl (mouse)): 0.764
phosphorylation enrichment (Fes): 0.902
phosphorylation enrichment (FGFR3): 0.643

SH2 binding enrichment (c-Src SH2): 0.388
SH2 binding enrichment (SHP2-C SH2): 0.423
SH2 binding enrichment (Grb2 SH2): 0.893
Sequence: PRSRSYSSTSI [REPS2_Y462]
phosphorylation enrichment (EPHB1): 0.538
phosphorylation enrichment (Fer (mouse)): 0.57
phosphorylation enrichment (Jak2): 1.2
phosphorylation enrichment (AncSZ): 1.11
phosphorylation enrichment (Fyn): 1.06
phosphorylation enrichment (EPHB2): 0.523
phosphorylation enrichment (MERTK): 1
phosphorylation enrichment (Hck): 0.468
phosphorylation enrichment (c-Src): 1.33
phosphorylation enrichment (FGFR1): 0.743
phosphorylation enrichment (c-Abl (mouse)): 0.932
phosphorylation enrichment (Fes): 1.71
phosphorylation enrichment (FGFR3): 0.611

SH2 binding enrichment (c-Src SH2): 1.48
SH2 binding enrichment (SHP2-C SH2): 0.75
SH2 binding enrichment (Grb2 SH2): 0.726
Sequence: YEEDSYVERSQ [RET_Y905_K907E]
phosphorylation enrichment (EPHB1): 0.667
phosphorylation enrichment (Fer (mouse)): 0.572
phosphorylation enrichment (Jak2): 1.06
phosphorylation enrichment (AncSZ): 1.27
phosphorylation enrichment (Fyn): 0.519
phosphorylation enrichment (EPHB2): 0.722
phosphorylation enrichment (MERTK): 0.504
phosphorylation enrichment (Hck): 0.498
phosphorylation enrichment (c-Src): 0.41
phosphorylation enrichment (FGFR1): 0.558
phosphorylation enrichment (c-Abl (mouse)): 0.668
phosphorylation enrichment (Fes): 1.31
phosphorylation enrichment (FGFR3): 0.961

SH2 binding enrichment (c-Src SH2): 0.376
SH2 binding enrichment (SHP2-C SH2): 0.525
SH2 binding enrichment (Grb2 SH2): 0.601
Sequence: KKRRSYGNSSD [SELENOK_Y52]
phosphorylation enrichment (EPHB1): 0.472
phosphorylation enrichment (Fer (mouse)): 0.417
phosphorylation enrichment (Jak2): 0.475
phosphorylation enrichment (AncSZ): 0.554
phosphorylation enrichment (Fyn): 0.448
phosphorylation enrichment (EPHB2): 0.394
phosphorylation enrichment (MERTK): 0.51
phosphorylation enrichment (Hck): 0.511
phosphorylation enrichment (c-Src): 0.525
phosphorylation enrichment (FGFR1): 0.383
phosphorylation enrichment (c-Abl (mouse)): 0.479
phosphorylation enrichment (Fes): 0.582
phosphorylation enrichment (FGFR3): 0.395

SH2 binding enrichment (c-Src SH2): 1.03
SH2 binding enrichment (SHP2-C SH2): 7.82
SH2 binding enrichment (Grb2 SH2): 0.829
Sequence: GENTVYAQVFN [LY9_Y603_M602V]
phosphorylation enrichment (EPHB1): 1.53
phosphorylation enrichment (Fer (mouse)): 7
phosphorylation enrichment (Jak2): 0.718
phosphorylation enrichment (AncSZ): 0.819
phosphorylation enrichment (Fyn): 6.74
phosphorylation enrichment (EPHB2): 1.23
phosphorylation enrichment (MERTK): 2.21
phosphorylation enrichment (Hck): 6.46
phosphorylation enrichment (c-Src): 5.05
phosphorylation enrichment (FGFR1): 0.599
phosphorylation enrichment (c-Abl (mouse)): 2.92
phosphorylation enrichment (Fes): 0.918
phosphorylation enrichment (FGFR3): 0.616

SH2 binding enrichment (c-Src SH2): 0.759
SH2 binding enrichment (SHP2-C SH2): 0.62
SH2 binding enrichment (Grb2 SH2): 1
Sequence: SLIERYEPSET [PLCD1_Y258]
phosphorylation enrichment (EPHB1): 0.742
phosphorylation enrichment (Fer (mouse)): 0.574
phosphorylation enrichment (Jak2): 0.966
phosphorylation enrichment (AncSZ): 1.07
phosphorylation enrichment (Fyn): 0.502
phosphorylation enrichment (EPHB2): 0.602
phosphorylation enrichment (MERTK): 0.727
phosphorylation enrichment (Hck): 0.54
phosphorylation enrichment (c-Src): 0.497
phosphorylation enrichment (FGFR1): 0.661
phosphorylation enrichment (c-Abl (mouse)): 0.717
phosphorylation enrichment (Fes): 1.1
phosphorylation enrichment (FGFR3): 0.678

SH2 binding enrichment (c-Src SH2): 0.571
SH2 binding enrichment (SHP2-C SH2): 0.656
SH2 binding enrichment (Grb2 SH2): 0.761
Sequence: IVEYAYNDKAI [PUM3_Y259]
phosphorylation enrichment (EPHB1): 0.705
phosphorylation enrichment (Fer (mouse)): 0.631
phosphorylation enrichment (Jak2): 1.15
phosphorylation enrichment (AncSZ): 1.28
phosphorylation enrichment (Fyn): 0.505
phosphorylation enrichment (EPHB2): 0.69
phosphorylation enrichment (MERTK): 0.397
phosphorylation enrichment (Hck): 0.539
phosphorylation enrichment (c-Src): 0.474
phosphorylation enrichment (FGFR1): 0.501
phosphorylation enrichment (c-Abl (mouse)): 0.859
phosphorylation enrichment (Fes): 1.27
phosphorylation enrichment (FGFR3): 0.702

SH2 binding enrichment (c-Src SH2): 1.09
SH2 binding enrichment (SHP2-C SH2): 0.635
SH2 binding enrichment (Grb2 SH2): 0.96
Sequence: VVEFGYEFFAK [PPP1CB_Y254_D252Y_YF]
phosphorylation enrichment (EPHB1): 0.583
phosphorylation enrichment (Fer (mouse)): 0.553
phosphorylation enrichment (Jak2): 1.41
phosphorylation enrichment (AncSZ): 1.52
phosphorylation enrichment (Fyn): 0.573
phosphorylation enrichment (EPHB2): 0.52
phosphorylation enrichment (MERTK): 0.488
phosphorylation enrichment (Hck): 0.559
phosphorylation enrichment (c-Src): 0.503
phosphorylation enrichment (FGFR1): 0.558
phosphorylation enrichment (c-Abl (mouse)): 0.965
phosphorylation enrichment (Fes): 1.26
phosphorylation enrichment (FGFR3): 0.829
